Data from patent US7618787B2, “Method of screening compound capable of accelerating or inhibiting apoptosis, apoptosis accelarator and apoptosis inhibitor” (Hisamitsu Pharmaceutical Co., Inc., priority 2004, dated 2009).

T1: p73 (Homo sapiens, UniProt O15350)
T1 construct: expressed in transfected cells; host or cells: COS7
T1 sequence (O15350 1-636): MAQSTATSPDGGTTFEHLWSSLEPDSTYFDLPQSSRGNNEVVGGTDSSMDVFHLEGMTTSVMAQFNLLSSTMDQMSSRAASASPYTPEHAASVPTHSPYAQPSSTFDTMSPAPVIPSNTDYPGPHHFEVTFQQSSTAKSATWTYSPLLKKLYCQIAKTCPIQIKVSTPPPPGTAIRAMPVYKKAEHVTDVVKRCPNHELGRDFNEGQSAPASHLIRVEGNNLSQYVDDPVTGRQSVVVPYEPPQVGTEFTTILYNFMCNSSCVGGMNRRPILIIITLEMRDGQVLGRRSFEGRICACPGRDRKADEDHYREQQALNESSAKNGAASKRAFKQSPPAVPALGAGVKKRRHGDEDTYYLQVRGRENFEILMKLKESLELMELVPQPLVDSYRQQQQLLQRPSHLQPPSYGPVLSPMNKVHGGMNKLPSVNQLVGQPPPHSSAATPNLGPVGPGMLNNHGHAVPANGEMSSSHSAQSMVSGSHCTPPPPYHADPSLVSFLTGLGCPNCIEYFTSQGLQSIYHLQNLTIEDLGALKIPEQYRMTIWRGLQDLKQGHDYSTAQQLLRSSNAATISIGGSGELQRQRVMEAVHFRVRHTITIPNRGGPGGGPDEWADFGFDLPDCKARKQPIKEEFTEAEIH

B1: IKK-α (K44A): IKK-α with 44th lysine substituted by alanine, SEQ ID NO: 25, lacking kinase activity; apoptosis inhibitor (protein)
chain: MERPPGLRPGAGGPWEMRERLGTGGFGNVCLYQHRELDLKIAIASCRLELSTKNRERWCHEIQIMKKLNHANVVKACDVPEELNILIHDVPLLAMEYCSGGDLRKLLNKPENCCGLKESQILSLLSDIGSGIRYLHENKIIHRDLKPENIVLQDVGGKIIHKIIDLGYAKDVDQGSLCTSFVGTLQYLAPELFENKPYTATVDYWSFGTMVFECIAGYRPFLHHLQPFTWHEKIKKKDPKCIFACEEMSGEVRFSSHLPQPNSLCSLIVEPMENWLQLMLNWDPQQRGGPVDLTLKQPRCFVLMDHILNLKIVHILNMTSAKIISFLLPPDESLHSLQSRIERETGINTGSQELLSETGISLDPRKPASQCVLDGVRGCDSYMVYLFDKSKTVYEGPFASRSLSDCVNYIVQDSKIQLPIIQLRKVWAEAVHYVSGLKEDYSRLFQGQRAAMLSLLRYNANLTKMKNTLISASQQLKAKLEFFHKSIQLDLERYSEQMTYGISSEKMLKAWKEMEEKAIHYAEVGVIGYLEDQIMSLHAEIMELQKSPYGRRQGDLMESLEQRAIDLYKQLKHRPSDHSYSDSTEMVKIIVHTVQSQDRVLKELFGHLSKLLGCKQKIIDLLPKVEVALSNIKEADNTVMFMQGKRQKEIWHLLKIACTQSSARSLVGSSLEGAVTPQTSAWLPPTSAEHDHSLSCVVTPQDGETSAQMIEENLNCLGHLSTIIHEANEEQGNSMMNLDWSWLTE
modifications: IKK-alpha(K44A)
B2: UFD2a: UFD2a protein, SEQ ID NO: 26, U-box ubiquitin protein ligase; apoptosis inhibitor (protein, listed as Homo sapiens)
chain: MEELSADEIRRRRLARLAGGQTSQPTTPLTSPQRENPPGPPIAASAPGPSQSLGLNVHNMTPATSPIGASGVAHRSQSSEGVSSLSSSPSNSLETQSQSLSRSQSMDIDGVSCEKSMSQVDVDSGIENMEVDENDRREKRSLSDKEPSSGPEVSEEQALQLVCKIFRVSWKDRDRDVIFLSSLSAQFKQNPKEVFSDFKDLIGQILMEVLMMSTQTRDENPFASLTATSQPIAAAARSPDRNLLLNTGSNPGTSPMFCSVASFGASSLSSLGASGGASNWDSYSDHFTIETCKETDMLNYLIECFDRVGIEEKKAPKMCSQPAVSQLLSNIRSQCISHTALVLQGSLTQPRSLQQPSFLVPYMLCRNLPYGFIQELVRTTHQDEEVFKQIFIPILQGLALAAKECSLDSDYFKYPLMALGELCETKFGKTHPVCNLVASLRLWLPKSLSPGCGRELQRLSYLGAFFSFSVFAEDDVKVVEKYFSGPAITLENTRVVSQSLQHYLELGRQELFKILHSILLNGETREAALSYMAAVVNANMKKAQMQTDDRLVSTDGFMLNFLWVLQQLSTKIKLETVDPTYIFHPRCRITLPNDETRVNATMEDVNDWLTELYGDQPPFSEPKFPTECFFLTLHAHHLSILPSCRRYIRRLRAIRELNRTVEDLKNNESQWKDSPLATRHREMLKRCKTQLKKLVRCKACADAGLLDESFLRRCLNFYGLLIQLLLRILDPAYPDITLPLNSDVPKVFAALPEFYVEDVAEFLFFIVQYSPQALYEPCTQDIVMFLVVMLCNQNYIRNPYLVAKLVEVMFMTNPAVQPRTQKFFEMIENHPLSTKLLVPSLMKFYTDVEHTGATSEFYDKFTIRYHISTIFKSLWQNIAHHGTFMEEFNSGKQFVRYINMLINDTTFLLDESLESLKRIHEVQEEMKNKEQWDQLPRDQQQARQSQLAQDERVSRSYLALATETVDMFHILTKQVQKPFLRPELGPRLAAMLNFNLQQLCGPKCRDLKVENPEKYGFEPKKLLDQLTDIYLQLDCARFAKAIADDQRSYSKELFEEVISKMRKAGIKSTIAIEKFKLLAEKVEEIVAKNARAEIDYSDAPDEFRDPLMDTLMTDPVRLPSGTIMDRSIILRHLLNSPTDPFNRQTLTESMLEPVPELKEQIQAWMREKQNSDH

Tests used:
p73 [1] = target: T1, p73; test: Co-immunoprecipitation with p73 in transfected COS7 cells; type: binding; details: COS7, co-immunoprecipitation (FIG. 10, FIG. 28)
Procedure: Whole cell lysates were centrifuged at 15000 rpm for 15 minutes to remove cell debris. The obtained supernatant was pretreated at 4° C. for 30 minutes with protein G-Sepharose (50% slurry, 30 μL; Amersham Pharmacia Biotech). After centrifugation, the supernatant was incubated at 4° C. for 2 hours with an anti-HA polyclonal (Medical and Biological Laboratories) or anti-FLAG monoclonal antibody. The immunocomplexes were precipitated at 4° C. for 30 minutes with protein G-Sepharose beads. After collection by brief centrifugation, the immunoprecipitates were washed three times with lysis buffer, then suspended in 30 μL of 2×Laemmli SDS sample buffer, and treated at 100° C. for 5 minutes. The supernatant was loaded onto 10% SDS-PAGE and analyzed by immunoblot as described above.
To investigate whether IKK-α interacted with p73 in cultured mammal cells, whole cell lysates were prepared from transfected COS7 cells, then immunoprecipitated with an anti-FLAG or anti-HA antibody, and analyzed by immunoblot using an anti-p73 or anti-FLAG antibody, respectively. […] Likewise, HA-p73β was co-immunoprecipitated with FLAG-IKK-α (data not shown). […] To identify determinants of p73 participating in the interaction with IKK-α, several deletion mutants of p73 fused to GST were prepared and examined for their abilities to bind to FLAG-IKK-α by in-vitro pull-down assay. These mutants were designed on the basis of the functional domains of p73 including transactivation, DNA-binding, oligomerization, and SAM domains (FIG. 12).

endogenous p53 = test: Amount of endogenous p53 in cisplatin-treated U2OS cells (immunoblot); type: cell-based, human; details: cisplatin 24 hours (FIG. 30)
U2OS or H1299 cells = test: Apoptosis induced by cisplatin in transfected cells; type: cell-based, human; details: U2OS and H1299 (FIGS. 31 and 33)
p73 [2] = target: T1, p73; test: p73 protein level (stabilization) by immunoblot in cotransfected COS7 cells; type: cell-based; details: COS7 cotransfection (FIG. 14, 15, 29)
Procedure: Cells were transiently transfected with a total of 2 μg of expression plasmids. After 48 hours of the transfection, the cells were washed with ice-cold PBS and suspended in lysis buffer (pH 8.0; which contained 25 mM Tris-Cl, 137 mM sodium chloride, 1% Triton X-100, 1 mM phenylmethylsulfonyl fluoride (PMSF), and protease inhibitor mix (Roche Molecular Biochemicals)), followed by brief sonication. After centrifugation at 15000 rpm for 10 minutes, the supernatant was collected and assayed for protein concentrations by the Bradford assay (Bio-Rad). Equal amounts of lysates (protein amount: 50 μg) from the whole cells were denatured by boiling in Laemmli SDS-sample buffer, then separated on 10% SDS-polyacrylamide gel (SDS-PAGE), and transferred at room temperature for 1 hour to polyvinylidene difluoride (PVDF) membranes (Immobilon-P; Millipore) in Tris-glycine buffer containing 10% methanol. The membranes were blocked at room temperature for 1 hour with Tris-buffered saline (TBS-T) containing 5% skim milk and 0.1% Tween 20.
As previously reported, some protein kinases (e.g., c-Abl and PKCδ) that interact with p73 can stabilize p73. To confirm whether IKK-α influenced the stabilization of p73, COS7 cells were transfected with a constant amount of HA-p73α expression plasmid together with or without varying amounts of IKK-α expression plasmids and examined for HA-p73α protein levels. […] Next, whether IKK-β influenced the stabilization of p73 and p53 was investigated by transient transfection.

H1299 cells [3] = test: p53-dependent apoptosis (DAPI staining, abnormal nuclei); type: cell-based, human; details: H1299, cotransfection with p53, 48 hours (FIG. 36)
Procedure: (§1) To examine the influence of UFD2a on p73-dependent apoptosis, the following experiment was performed. p53-deficient H1299 cells were transiently cotransfected with the given combinations (HA-p73α, p53, and FLAG-UFD2a) of expression plasmids. After 48 hours of the transfection, the cells were fixed at room temperature for 30 minutes in 3.7% formaldehyde, then permeabilized at room temperature for 5 minutes with 0.2% Triton X-100, and blocked for 1 hour with 3% BSA. The cells were washed three times with 1×PBS and stained at room temperature for 20 minutes with DAPI (4′,6-diamidino-2-phenylindole; 1 μg/mL). Of the cells transfected with GFP, cells having abnormal nuclei were counted under a microscope.

H1299 cells [4] = test: p73-dependent apoptosis (DAPI staining, abnormal nuclei); type: cell-based, human; details: H1299, cotransfection with HA-p73α, 48 hours (FIG. 36)
Procedure: as §1

p53 = test: Amount of endogenous p53 in COS7 cells (immunoblot); type: cell-based, African green monkey; details: COS7, cisplatin 20 μg/mL for 24 hours (FIG. 35)
Procedure: To examine the influence of UFD2a on endogenous p73, the following experiment was performed. COS7 cells were transfected or untransfected with a FLAG-UFD2a expression plasmid. After 24 hours of the transfection, the cells were exposed to cisplatin (final concentration: 20 μg/mL) for 24 hours or left untreated. Whole cell lysates were prepared from the transfected cells and analyzed for p73α, p53, and UFD2a expression by immunoblot. Actin was utilized as a control for addition.

Molecule | complex formation with HA-p73α (p73 [1]) | amount of endogenous p53 (endogenous p53) | apoptosis induced by cisplatin (U2OS or H1299 cells) | amount of HA-p73α (p73 [2]) | p53-dependent apoptosis (H1299 cells [3]) | number of apoptotic cells, p73-dependent (H1299 cells [4]) | amount of endogenous p53 (p53)
B1 | maintained the ability to form complexes with p73α | no remarkable effect on the amount of endogenous p53 | remarkably inhibited | almost no effect on the intracellular level of exogenously expressed HA-p73α | – | – | –
B2 | – | – | – | – | could not suppress p53-dependent apoptosis | decreased the number of apoptotic cells | no influence on the amount of endogenous p53
